Measured values published in patent US20080213187A1, “NOVEL CASCADE POLYMER COMPLEXES, PROCESSES FOR THEIR PREPARATION AND PHARMACEUTICAL COMPOSITIONS COMPRISING THEM” (priority 2007, published 2008).

Legend:
[1] = Plasma kinetics after intravenous administration to rats; format: in vivo; conditions: for Plasma levels (as % of the dose): i.v. 50 μmol total Gd/kg, ICP-AES
Procedure: Plasma Kinetics of the Compounds 2e and 4e After Intravenous Administration to Rats
The title substances from Examples 2e and 4e, and for comparison the title substance from Example 1 of EP 0 836 485, were administered intravenously to rats in a dose of 50 μmol of total gadolinium/kg of body weight. Blood samples were then taken through a catheter in the common carotid artery at various times (1, 3, 5, 10, 15, 30, 60, 90, 120, 240, 360 min, and 24 h p.i.), and the metal content was determined by atomic emission spectroscopy (ICP-AES) and converted into plasma levels using a conversion factor (0.625). The kinetic data were calculated (software: WinNonlin) from the plasma concentrations (Tab. 1, 2).

[2] = rats, cited from earlier work
[3] = rats; cited from earlier work
[4] = intravenous, 50 μmol of total gadolinium/kg, calculated with WinNonlin from plasma concentrations

Row | Compound | Plasma levels (as % of the dose) ([1]; 1 min p.i.) | Plasma levels (as % of the dose) ([1]; 3 min p.i.) | Plasma levels (as % of the dose) ([1]; 5 min p.i.) | Plasma levels (as % of the dose) ([1]; 10 min p.i.) | Plasma levels (as % of the dose) ([1]; 15 min p.i.) | Plasma levels (as % of the dose) ([1]; 30 min p.i.) | Plasma levels (as % of the dose) ([1]; 60 min p.i.) | Plasma levels (as % of the dose) ([1]; 90 min p.i.) | Plasma levels (as % of the dose) ([1]; 120 min p.i.) | Plasma levels (as % of the dose) ([1]; 240 min p.i.) | Plasma levels (as % of the dose) ([1]; 360 min p.i.) | Plasma levels (as % of the dose) ([1]; 1440 min p.i.) | Half-life α phase [1, 4] | Half-life β phase [1, 4] | Volume of distribution Vd ss [1, 4] | accumulation in liver tissue ([2]; 24 hours after intravenous injection) | dose eliminated ([2]; in 24 hours) | excretion behaviour [3]
1 | CC(C(=O)NCC(=O)NCCCC[C@H](NC(=O)CNC(=O)C(C)N1CCN(CC(=O)O)CCN(CC(=O)O)CCN(CC(=O)O)CC1)C(=O)NCCCC[C@H](NC(=O)[C@H](CCCCNC(=O)CNC(=O)C(C)N1CCN(CC(=O)O)CCN(CC(=O)O)CCN(CC(=O)O)CC1)NC(=O)CNC(=O)C(C)N1CCN(CC(=O)O)CCN(CC(=O)O)CCN(CC(=O)O)CC1)C(=O)NCCN(CCNC(=O)[C@H](CCCCNC(=O)[C@H](CCCCNC(=O)CNC(=O)C(C)N1CCN(CC(=O)O)CCN(CC(=O)O)CCN(CC(=O)O)CC1)NC(=O)CNC(=O)C(C)N1CCN(CC(=O)O)CCN(CC(=O)O)CCN(CC(=O)O)CC1)NC(=O)[C@H](CCCCNC(=O)CNC(=O)C(C)N1CCN(CC(=O)O)CCN(CC(=O)O)CCN(CC(=O)O)CC1)NC(=O)CNC(=O)C(C)N1CCN(CC(=O)O)CCN(CC(=O)O)CCN(CC(=O)O)CC1)C(=O)c1cc(C(=O)N(CCNC(=O)[C@H](CCCCNC(=O)[C@H](CCCCNC(=O)CNC(=O)C(C)N2CCN(CC(=O)O)CCN(CC(=O)O)CCN(CC(=O)O)CC2)NC(=O)CNC(=O)C(C)N2CCN(CC(=O)O)CCN(CC(=O)O)CCN(CC(=O)O)CC2)NC(=O)[C@H](CCCCNC(=O)CNC(=O)C(C)N2CCN(CC(=O)O)CCN(CC(=O)O)CCN(CC(=O)O)CC2)NC(=O)CNC(=O)C(C)N2CCN(CC(=O)O)CCN(CC(=O)O)CCN(CC(=O)O)CC2)CCNC(=O)[C@H](CCCCNC(=O)[C@H](CCCCNC(=O)CNC(=O)C(C)N2CCN(CC(=O)O)CCN(CC(=O)O)CCN(CC(=O)O)CC2)NC(=O)CNC(=O)C(C)N2CCN(CC(=O)O)CCN(CC(=O)O)CCN(CC(=O)O)CC2)NC(=O)[C@H](CCCCNC(=O)CNC(=O)C(C)N2CCN(CC(=O)O)CCN(CC(=O)O)CCN(CC(=O)O)CC2)NC(=O)CNC(=O)C(C)N2CCN(CC(=O)O)CCN(CC(=O)O)CCN(CC(=O)O)CC2)cc(C(=O)N(CCNC(=O)[C@H](CCCCNC(=O)[C@H](CCCCNC(=O)CNC(=O)C(C)N2CCN(CC(=O)O)CCN(CC(=O)O)CCN(CC(=O)O)CC2)NC(=O)CNC(=O)C(C)N2CCN(CC(=O)O)CCN(CC(=O)O)CCN(CC(=O)O)CC2)NC(=O)[C@H](CCCCNC(=O)CNC(=O)C(C)N2CCN(CC(=O)O)CCN(CC(=O)O)CCN(CC(=O)O)CC2)NC(=O)CNC(=O)C(C)N2CCN(CC(=O)O)CCN(CC(=O)O)CCN(CC(=O)O)CC2)CCNC(=O)[C@H](CCCCNC(=O)[C@H](CCCCNC(=O)CNC(=O)C(C)N2CCN(CC(=O)O)CCN(CC(=O)O)CCN(CC(=O)O)CC2)NC(=O)CNC(=O)C(C)N2CCN(CC(=O)O)CCN(CC(=O)O)CCN(CC(=O)O)CC2)NC(=O)[C@H](CCCCNC(=O)CNC(=O)C(C)N2CCN(CC(=O)O)CCN(CC(=O)O)CCN(CC(=O)O)CC2)NC(=O)CNC(=O)C(C)N2CCN(CC(=O)O)CCN(CC(=O)O)CCN(CC(=O)O)CC2)c1)N1CCN(CC(=O)O)CCN(CC(=O)O)CCN(CC(=O)O)CC1 (stereo partly drawn) [Example No. 1 from EP 0 836 485] | 75.0% | 39.2% | 25.0% | 6.9% | 4.0% | 1.5% | 1.0% | 0.9% | 0.7% | 0.4% | 0.4% | 0.0% | – | – | – | – | – | –
2 | Octa-Gd complex amide from the Gd complex of 10-(4-carboxy-1-methyl-2-oxo-3-azabutyl)-1,4,7,10-tetraazacyclododecane-1,4,7-triacetic acid with dendritic octaamine 4d [Example 4e] | 65.9% | 44.2% | 30.0% | 17.5% | 13.5% | 8.3% | 4.5% | 2.7% | 1.6% | 0.3% | 0.0% | 0.0% | 3.3 min | 42.0 min | 0.20 L/kg | – | – | –
3 | albumin-GdDTPA | – | – | – | – | – | – | – | – | – | – | – | – | – | – | – | ~30 % of the dose | 20 % of the dose | –
4 | polylysine-GdDTPA | – | – | – | – | – | – | – | – | – | – | – | – | – | – | – | – | – | excreted unchanged by glomerular filtration via the kidney
